What was measured:
BEAF32 (BEAF32B) = molecular target: T1, BEAF32 (BEAF32B) (Drosophila, UniProt Q94513 1-282); assay: fluorescence anisotropy; Hill n=3±0.4; 20 uM ZnSO4; FA/FCS: 30 mM Tris/HCl pH 7.5, 100 mM NaCl, 20 uM ZnSO4, 5 mM mercaptoethanol, 0.01 mg/ml BSA, 0.004% Tween20, 2.5 nM DNA; EMSA: 150 mM NaCl, 30 mM Tris/HCl pH; details: protein: recombinant; tags: N-term MBP; C-term 6xHis; blunt
T1 sequence: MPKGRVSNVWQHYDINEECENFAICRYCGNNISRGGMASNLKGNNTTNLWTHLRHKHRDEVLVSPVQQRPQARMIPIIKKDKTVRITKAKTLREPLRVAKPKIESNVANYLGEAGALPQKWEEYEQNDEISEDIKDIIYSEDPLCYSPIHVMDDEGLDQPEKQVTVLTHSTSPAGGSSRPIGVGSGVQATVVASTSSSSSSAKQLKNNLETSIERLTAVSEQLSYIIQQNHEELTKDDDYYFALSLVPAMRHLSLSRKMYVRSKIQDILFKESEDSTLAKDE

Chromator = molecular target: T2, Chromator (Drosophila, UniProt Q86BS3 1-926); assay: fluorescence anisotropy; Hill n=2±0.2; 20 uM ZnSO4; FA/FCS: 30 mM Tris/HCl pH 7.5, 100 mM NaCl, 20 uM ZnSO4, 5 mM mercaptoethanol, 0.01 mg/ml BSA, 0.004% Tween20, 2.5 nM DNA; EMSA: 150 mM NaCl, 30 mM Tris/HCl pH; details: protein: recombinant; tags: N-term 6xHis; blunt
T2 sequence: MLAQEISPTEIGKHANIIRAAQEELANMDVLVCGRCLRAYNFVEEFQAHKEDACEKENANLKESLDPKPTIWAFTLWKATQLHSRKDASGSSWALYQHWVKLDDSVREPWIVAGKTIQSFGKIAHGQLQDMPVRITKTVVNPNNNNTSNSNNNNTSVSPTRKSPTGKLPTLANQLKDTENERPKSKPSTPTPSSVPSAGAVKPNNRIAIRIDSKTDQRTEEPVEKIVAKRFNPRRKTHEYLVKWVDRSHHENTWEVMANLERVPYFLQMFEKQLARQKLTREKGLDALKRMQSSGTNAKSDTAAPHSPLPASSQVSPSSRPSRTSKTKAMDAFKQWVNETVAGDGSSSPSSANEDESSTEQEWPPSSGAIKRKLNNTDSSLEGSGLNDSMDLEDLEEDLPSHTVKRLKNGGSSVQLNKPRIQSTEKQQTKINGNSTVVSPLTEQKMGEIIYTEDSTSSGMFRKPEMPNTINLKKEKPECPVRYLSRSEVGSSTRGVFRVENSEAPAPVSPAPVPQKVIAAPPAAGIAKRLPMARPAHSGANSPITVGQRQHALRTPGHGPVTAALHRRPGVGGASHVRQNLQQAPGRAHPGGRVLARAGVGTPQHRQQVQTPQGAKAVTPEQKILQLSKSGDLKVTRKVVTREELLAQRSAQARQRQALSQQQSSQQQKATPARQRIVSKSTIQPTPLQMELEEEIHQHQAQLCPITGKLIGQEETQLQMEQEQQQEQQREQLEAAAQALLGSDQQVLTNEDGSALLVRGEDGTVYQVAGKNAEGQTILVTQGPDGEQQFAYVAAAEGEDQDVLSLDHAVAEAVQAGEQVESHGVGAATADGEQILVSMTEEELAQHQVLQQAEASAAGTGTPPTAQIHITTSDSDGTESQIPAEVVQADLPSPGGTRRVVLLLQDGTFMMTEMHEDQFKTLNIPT

CP190 [1] = molecular target: T3, CP190 (Drosophila, UniProt Q24478 1-1096); assay: fluorescence anisotropy; Hill n=2±0.3; 20 uM ZnSO4; FA/FCS: 30 mM Tris/HCl pH 7.5, 100 mM NaCl, 20 uM ZnSO4, 5 mM mercaptoethanol, 0.01 mg/ml BSA, 0.004% Tween20, 2.5 nM DNA; EMSA: 150 mM NaCl, 30 mM Tris/HCl pH; details: protein: recombinant; tags: N-term 6xHis; blunt
T3 sequence: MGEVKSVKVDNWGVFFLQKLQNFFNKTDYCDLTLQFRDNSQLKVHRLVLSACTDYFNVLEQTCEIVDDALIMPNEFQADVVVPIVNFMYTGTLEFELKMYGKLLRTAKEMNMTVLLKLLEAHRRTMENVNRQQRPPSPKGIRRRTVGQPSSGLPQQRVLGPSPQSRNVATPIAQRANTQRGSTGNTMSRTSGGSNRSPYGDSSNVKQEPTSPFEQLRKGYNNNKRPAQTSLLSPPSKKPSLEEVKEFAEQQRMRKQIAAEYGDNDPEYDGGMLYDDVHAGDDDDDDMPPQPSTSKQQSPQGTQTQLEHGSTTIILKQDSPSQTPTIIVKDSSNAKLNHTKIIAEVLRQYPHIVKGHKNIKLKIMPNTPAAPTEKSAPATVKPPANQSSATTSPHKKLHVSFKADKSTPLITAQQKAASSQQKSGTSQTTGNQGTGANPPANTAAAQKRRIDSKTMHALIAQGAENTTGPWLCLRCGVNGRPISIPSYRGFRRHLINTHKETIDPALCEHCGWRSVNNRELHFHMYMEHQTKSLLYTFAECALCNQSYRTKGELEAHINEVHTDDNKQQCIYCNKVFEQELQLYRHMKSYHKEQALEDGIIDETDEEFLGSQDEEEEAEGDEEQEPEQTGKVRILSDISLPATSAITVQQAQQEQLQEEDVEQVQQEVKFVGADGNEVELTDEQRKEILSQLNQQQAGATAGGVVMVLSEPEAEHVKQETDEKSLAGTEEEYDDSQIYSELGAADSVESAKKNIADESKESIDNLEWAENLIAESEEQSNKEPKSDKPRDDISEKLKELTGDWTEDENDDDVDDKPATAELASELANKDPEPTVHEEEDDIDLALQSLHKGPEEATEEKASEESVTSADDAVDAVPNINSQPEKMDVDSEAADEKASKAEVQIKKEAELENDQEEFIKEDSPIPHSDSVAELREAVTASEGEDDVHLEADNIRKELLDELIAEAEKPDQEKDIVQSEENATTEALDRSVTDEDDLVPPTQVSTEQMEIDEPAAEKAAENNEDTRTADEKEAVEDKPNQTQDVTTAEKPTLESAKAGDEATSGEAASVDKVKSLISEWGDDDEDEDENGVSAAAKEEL

CP190 [2] = molecular target: T3, CP190; assay: competition; unlabeled DNAS vs 2.5 nM Cy3B-DNAS, 200 nM CP190; FA/FCS: 30 mM Tris/HCl pH 7.5, 100 mM NaCl, 20 uM ZnSO4, 5 mM mercaptoethanol, 0.01 mg/ml BSA, 0.004% Tween20, 2.5 nM DNA; EMSA: 150 mM NaCl, 30 mM Tris/HCl pH; details: protein: recombinant; tags: N-term 6xHis; blunt

B1: DNAS (dsDNA)
DNA 1: AGAAGTCAGCGCGATAGCATCGATATTTTCGTGACACGCTTGTCATCCGATAGGTAGT
DNA 2: ACTACCTATCGGATGACAAGCGTGTCACGAAAATATCGATGCTATCGCGCTGACTTCT
B1 gave a Kd (BEAF32 (BEAF32B)) of 68 ± 5 nM, a Kd (Chromator) of 360 ± 30 nM and a Kd (CP190 [1]) of 109 ± 5 nM. It also gave a Ki (CP190 [2]) of 17 ± 4 nM.

From paper PMC4148193, “Chromatin Insulator Factors Involved in Long-Range DNA Interactions and Their Role in the Folding of the Drosophila Genome” (PLoS Genetics, 2014)
